From US20220218614A1, “IONIZABLE CATIONIC LIPIDS AND LIPID NANOPARTICLES, AND METHODS OF SYNTHESIS AND USE THEREOF” (Tidal Therapeutics, Inc., priority 2020, published 2022)
“Also recorded” adds a separate entry of the source.

Assays:
Type in all cases: cell-based
[1] = test system: human CD8 T cells; assay: Transfection of human CD8 T cells with Fab-targeted Cy5/GFP mRNA LNPs; details: Lipid 8 LNP, Cy5/GFP mRNA approximately 2.5 μg/mL, approximately 24 hr, Fab conjugate post-inserted
Procedure: LNPs were prepared using the mixing process described in Example 6, the buffer exchange process described in Example 21. hSP34 and TRX2 Fab-lipid conjugates generated from methods described in Example 4 and a non-T cell specific anti-HER2 lipid-conjugate (Nellis D F, Ekstrom D L, Kirpotin D B, Zhu J, Andersson R, Broadt T L, Ouellette T F, Perkins S C, Roach J M, Drummond D C, Hong K, Marks J D, Park J W and Giardina S L (2005) Preclinical manufacture of an anti-HER2 scFv-PEG-DSPE, liposome-inserting conjugate. 1. Gram-scale production and purification. Biotechnol Prog 21:205-220) were post-inserted at various densities (SP34 0.6-17 g/mol; TRX2 3-9 g/mol; anti-HER2 17 g/mol) into LNPs containing Lipid 8, Cy5 labeled GFP mRNA and GFP mRNA (1:9 Cy5:GFP mass ratio) by adding conjugate and LNPs together and heating the solution without mixing in a thermal cycler at 60 C for 60 min and cooled to 4° C. for 3-5 min. […] After transfection, LNP binding efficiency (Cy5) and transfection efficiency (GFP) was evaluated by flow cytometry. Supernatants were measured for human IFNγ concentration using a commercially available ELISA kit under manufacturers recommended conditions (R&D Systems Duoset). […]

[2] = test system: human CD3 T cells; assay: Transfection of human CD3 T cells (CD8 and CD4 subsets) with Fab/Nb-targeted LNPs; details: targeted Lipid 8 LNP (Lipid 5 in Example 43), GFP mRNA approximately 2.5 μg/mL, approximately 24 hr
Procedure: LNPs were prepared using the mixing process described in Example 6, the buffer exchange process described below in Example 21. Using methods similar to Example 12, hSP34 and TRX2 Fab-lipid conjugates and a non-T cell specific anti-HER2 lipid-conjugate (Nellis D F, Ekstrom D L, Kirpotin D B, Zhu J, Andersson R, Broadt T L, Ouellette T F, Perkins S C, Roach J M, Drummond D C, Hong K, Marks J D, Park J W and Giardina S L (2005) Preclinical manufacture of an anti-HER2 scFv-PEG-DSPE, liposome-inserting conjugate. 1. Gram-scale production and purification. Biotechnol Prog 21:205-220) were post-inserted at various densities (SP34 0.25-17 g/mol; TRX2 0.25-9 g/mol; SP34+TRX2 0.25-9 g/mol each conjugate; anti-HER2 17 g/mol) into LNPs containing Lipid 8 and anti-CD20 targeting CART mRNA. Transfections were performed with human CD3 T cells at approximately 2.5 μg/mL mRNA for approximately 24 hr. For FACS analysis T cells were stained with M1 antibody (Sigma, F3040) that bind a N-terminus FLAG-tag variant sequence on the TTR-023 CAR (sequence provided below) in addition to staining for CD69 (Biolegend, 310930) and CD4 (Biolegend, 344648) to differentiate CD8 from CD4 cells.
LNPs were prepared using the mixing process described in Example 6, the buffer exchange process described in Example 21. Using methods similar to Example 12, hSP34, TRX2, and Ibalizumab Fab-lipid conjugates and a non-T cell specific anti-HER2 lipid-conjugate were post-inserted at various densities (specified in FIGS. 20A and 20B into LNPs containing Lipid 8 and Cy5/GFP mRNA. Transfections were performed with human CD3 T cells at approximately 2.5 μg/mL mRNA for approximately 24 hr and stained for CD69 (Biolegend, 310930) and CD4 (Biolegend, 344648) to differentiate CD8 from CD4 cells by FACS analysis.
LNPs were prepared using the mixing process described in Example 6, the buffer exchange process described in Example 21. Conjugates were generated using a method similar to that of Example 4 except 0.025, 0.1, 0.5 mM TCEP was used for hSP34 DS, 0.025, 0.2, 2 mM TCEP was used for hSP34-hlam NoDS (interchain disulfide knockout) for reduction prior to conjugation and the conjugation reactions were performed at 37 C for 2 hr. SDS-PAGE (FIGS. 65A, 65B) was performed using the manufacturers recommended conditions with 1 ug of protein (Thermo, 4-12% Bis-Tris MiniGel). RP-HPLC (FIGS. 65C, 65D) was performed using an Agilent 300 SB-C8 at 0.5 mL/min with a column temperature of 60° C., Mobile Phase A: Water with 0.1% TFA, Mobile Phase B: Acetonitrile with 0.1% TFA, Gradient % B: 0 min 5%, 1 min 5%, 6.5 min 95%, 8 min 95% injecting 10 ul with a target of 1-25 ug of protein. Using methods similar to Example 12, ant-CD3 hSP34 (with and without natural interchain disulfide, DS (with interchain disulfide) vs. NoDS (without interchain disulfide), see sequences below) PEG-lipid conjugated Fabs were post-inserted at various Fab densities (6, 12, 17 g Fab/mol total lipid) into LNPs containing Lipid 8 and Cy5/GFP mRNA. Transfections were performed with human CD3 T cells at approximately 2.5 μg/mL mRNA for approximately 24 hr. Levels of transfection of CD3 T cells was measured by flow cytometry.
LNPs were prepared using the mixing process described in Example 6, the buffer exchange process described in Example 21. Conjugates were generated using a method similar to that of Example 4 except 0.1 mM TCEP was used for reduction prior to conjugation and the conjugation reaction was performed at 37 C for 2 hr. […]

[3] = test system: IFNγ; assay: Human IFNγ ELISA of T cell culture supernatants after LNP transfection; details: T cells approximately 24 hr after targeted LNPs at approximately 2.5 μg/mL mRNA
Procedure: LNPs were prepared using the mixing process described in Example 6, the buffer exchange process described in Example 21. hSP34 and TRX2 Fab-lipid conjugates generated from methods described in Example 4 and a non-T cell specific anti-HER2 lipid-conjugate (Nellis D F, Ekstrom D L, Kirpotin D B, Zhu J, Andersson R, Broadt T L, Ouellette T F, Perkins S C, Roach J M, Drummond D C, Hong K, Marks J D, Park J W and Giardina S L (2005) Preclinical manufacture of an anti-HER2 scFv-PEG-DSPE, liposome-inserting conjugate. 1. Gram-scale production and purification. Biotechnol Prog 21:205-220) were post-inserted at various densities (SP34 0.6-17 g/mol; TRX2 3-9 g/mol; anti-HER2 17 g/mol) into LNPs containing Lipid 8, Cy5 labeled GFP mRNA and GFP mRNA (1:9 Cy5:GFP mass ratio) by adding conjugate and LNPs together and heating the solution without mixing in a thermal cycler at 60 C for 60 min and cooled to 4° C. for 3-5 min. […] After transfection, LNP binding efficiency (Cy5) and transfection efficiency (GFP) was evaluated by flow cytometry. Supernatants were measured for human IFNγ concentration using a commercially available ELISA kit under manufacturers recommended conditions (R&D Systems Duoset).
IFN-γ was assayed using an R&D Duoset […] ELISA kit, PN DY285B. […] Optical density at 450 nm was read on a Spectramax M5 plate reader. […]

B1: OKT8: anti-CD8 Fab, SEQ ID NO: 8 and 9 (antibody)
heavy: QVQLVQSGAEDKKPGASVKVSCKASGFNIKDTYIHWVRQAPGQGLEWMGRIDPANDNTLYASKFQGRVTITADTSSNTAYMELSSLRSEDTAVYYCGRGYGYYVFDHWGQGTTVTVSSASTKGPSVFPLAPSSKSTSGGTAALGCLVKDYFPEPVTVSWNSGALTSGVHTFPAVLQSSGLYSLSSVVTVPSSSLGTQTYICNVNHKPSNTKVDKKVEPKSSDKTHTC
light: DIVMTQSPSSLSASVGDRVTITCRTSRSISQYLAWYQEKPGKAPKLLIYSGSTLQSGVPSRFSGSGSGTDFTLTISSLQPEDFATYYCQQHNENPLTFGQGTKVEIKRTVAAPSVFIFPPSDEQLKSGTASVVCLLNNFYPREAKVQWKVDNALQSGNSQESVTEQDSKDSTYSLSSTLTLSKADYEKHKVYACEVTHQGLSSPVTKSFNRGES
[1]
  transfection (% GFP+, GFP MFI) and binding (% Cy5+, Cy5 MFI), in words: high levels of particle binding

B2: BDSn: anti-CD8 Nanobody, SEQ ID NO: 77 (protein)
VHH: EVQLVESGGGLVQAGGSLRLSCAASGSTFSDYGVGWFRQAPGKGREFVADIDWNGEHTSYADSVKGRFATSRDNAKNTAYLQMNSLKPEDTAVYYCAADALPYTVRKYNYWGQGTQVTVSSGGCGGHHHHHH
modifications: conjugate
[2]
  % GFP transfection and GFP expression (MFI) of CD8 and CD4 T cells, in words: higher % transfection (FIG. 73A) and GFP expression levels (FIG. 73B) than anti-CD8 TRX2; also recorded: transfection and translation was only observed in the CD8 T cell population
[3]
  IFNγ secretion into supernatant, in words: did not mediate substantial IFNγ secretion levels over non-targeted mutOKT8 Fab
